These results are taken from the nanobody polyreactivity screen of Harvey et al. (2022).

A short description of the data set: yeast display, Sf9 membrane polyspecificity reagent, FACS + sequencing; frameworks hold sequencing errors. The method, boiled down:
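Nanobodies came from a synthetic yeast display library in Saccharomyces cerevisiae BJ5465, induced with galactose for 36–48 hours and stained for 1 hour at 4 °C with 10% biotinylated, detergent-solubilized Sf9 membrane reagent. Cells were enriched on streptavidin microbeads and then FACS-sorted, with low and high (top ~1%) gates set on anti-HA fluorescence for expression and streptavidin fluorescence for reagent binding. Each polyreactivity label reflects the gate a clone came from. Genes were amplified by colony PCR, sequenced by MiSeq 2 × 250 and filtered by CDR length.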
With “QVQLVESGGGLVQAGGSLRLICAASGPTFYYYAMGWYTQAPGKERELVARISRGGSTNYADSVKGRFTISRDNAKNTVYLQMNSLKAEDTAVYYFAITISYTGGYWGYDYWGQGTQVTVSS”, the “polyreactivity (PSR sort gate)” value is “high polyreactivity”.

“QVQLVESGGGLVQAGGSLRLICAASGRIFCNYAMGWSRQAPGKERELVAAISSGGNTYYADSVKGRFTISRDNAKNTVYLQMNSLKPEDSAVYYCNEVYVGWQYGYDYWGQGTQVTVSS”: the “polyreactivity (PSR sort gate)” value is recorded as “low polyreactivity”.

On to “QVQLVESGGGLVQAGGSLRLICAASGRIFDDNAMGWYRQAPGKERELVATISSTGGRTYYADSVKGRFTISRDNAKNTVYLQMNSLKPEDTAVYYCAARRRQGGYYYWGQGTQVTVSS”, for which the “polyreactivity (PSR sort gate)” value is “high polyreactivity”.

Take “QVQLVESGGGLVQAGGSLRLICAASGRIFGIYAMGWYRQAPGKERELVASITGSSGSTNYADSVKGRFTISRDNAKNTVYLQMNSLKPEDTAVYYCAAERGYHGGGSGLYDYWGQGTQVTVSS”: the “polyreactivity (PSR sort gate)” value is given as “low polyreactivity”.

On to “QVQLVESGGGLVQAGGSLRLICAASGRIFGTNAIGWYRQAPGQEREVVATITRGGGNTYYADSVKGRFTISRDNAKNTVYLQMNSLKPEDTAVYYCAAKFHRFAWYAHYDYWGPGTQVTVSS”, for which the “polyreactivity (PSR sort gate)” value was “low polyreactivity”.

For “QVQLVESGGGLVQAGGSLRLICAASGRIFGVYVMGLYRPAPGKERELVAAISWSGSHTYYADSVKGRFTISRDNAKNTVYLQMNSLKPEDTAVYYCNADSYPEYTGPGLDWYDYWGQGTQVTVSS”, the “polyreactivity (PSR sort gate)” value is on record as “low polyreactivity”.

Consider “QVQLVESGGGLVQAGGSLRLICAASGRIFKVYAMGWYRQAPGKERELVAVITGGGSTNYADSVKGRFTISRDNAKNTVDLQMNSLKPEDTAVYYCATEGYGHGGETDGGVYSELGSWGQGTQVTVSS”, for which the “polyreactivity (PSR sort gate)” value was “low polyreactivity”.

As for “QVQLVESGGGLVQAGGSLRLICAASGRIFLGYAMGWYRKAPGKERELVAAITSSSGITYYADSVKGRFTISRDNAKNSVYLQMNSLKPEDTAVYYCAARASSGRRTKRYNYWGQGTKVTVSS”, the “polyreactivity (PSR sort gate)” value was “low polyreactivity”.

In the case of “QVQLVESGGGLVQAGGSLRLICAASGRIFNSYAMGWFRQAPGKEMELVAAISRNGGITYYADSVKGRFTISRDNAKNTVYFQMNSLKPEDTAVYYCNADSSRRRYSSDYWGQGTQVTVSS”, the “polyreactivity (PSR sort gate)” value is given as “high polyreactivity”.

As for “QVQLVESGGGLVQAGGSLRLICAASGRIFPFYAMGWYRPEPGKERELVASISWSGGSTYYADSVKGRFTISRDNAKNPVYLQMNSLKPEDTAVFFCAARRWIADPGRIMDYWGQGTQVTVSS”, the “polyreactivity (PSR sort gate)” value is “high polyreactivity”.

With “QVQLVESGGGLVQAGGSLRLICAASGRIFRGNVMGWYRQAPGKERELDAAISSGGRTYYADSVKGRFTISRDNAKNTVYLQMNSLKPEDSAVYYCAKAFREGEGKFDYWGQGTQVTVSS”, the “polyreactivity (PSR sort gate)” value is reported as “high polyreactivity”.

On to “QVQLVESGGGLVQAGGSLRLICAASGRIFRRYAMGWYRQAPGKERELVASISLSGGSTYYADSVKGRFTISRDNAKNTVYLQMNSLKPEDTAVYYCAAVRPGVSNYGHWGQGTQLTVSS”, for which the “polyreactivity (PSR sort gate)” value is on record as “high polyreactivity”.

In the case of “QVQLVESGGGLVQAGGSLRLICAASGRIFRVYAMGWYRQSPGKERELVAAISSRGGRTYYADSVKGRFTISRDNAKNTVYLQMKSMIPEDTAVYYCAADGRSSSRTTYRYDYWGQGTQVTVSS”, the “polyreactivity (PSR sort gate)” value is reported as “high polyreactivity”.

“QVQLVESGGGLVQAGGSLRLICAASGRIFSRNAMGWYRQAPGKERELVAGISARGGRTYYADSVKGRFTISRDNAKNTVYLQMNSLKPEDTAVYYCNARTGYQDGTYGNDYWGQGTQVTVSS”: the “polyreactivity (PSR sort gate)” value was “high polyreactivity”.

For “QVQLVESGGGLVQAGGSLRLICAASGRIFTYNGMGWYRQAPGKERELVAAISSGGSTYADSVKGRFTISRDNAKNTVYLQMNSLKPEDTAVYYCAAVKGYQGSSYQRVDWEGDYWGQGTQVSVSS”, the “polyreactivity (PSR sort gate)” value is recorded as “low polyreactivity”.

As to “QVQLVESGGGLVQAGGSLRLICAASGRIFVRNARGLYRQAPGTERELVASISQNGGRTYYADSVKGRFTISRDNAKNTVYLQMNSLKPEDTAVYYCARGRGGSRPGLDYWGQGTQVTVSS”, the “polyreactivity (PSR sort gate)” value was “high polyreactivity”.

Take “QVQLVESGGGLVQAGGSLRLICAASGRIFYAYAMGWYRQAPGKERELVATITYGGGSTYYADSVKGRFTISRDNAKNTVYLQMNSLKPEDTAVYYCAAVRTGSTLYTIRYYYWGQGTQVTVSS”: the “polyreactivity (PSR sort gate)” value was “low polyreactivity”.

With “QVQLVESGGGLVQAGGSLRLICAASGRIFYPYAMGWYRPAPGKERELVATITRTGSTYYADSVKGRFTISRDNAKNTVYLHMNSLKPEDTAVYYCAVQRSYVGPRQYNYWGQGTQVTVSS”, the “polyreactivity (PSR sort gate)” value is recorded as “high polyreactivity”.

On to “QVQLVESGGGLVQAGGSLRLICAASGRIFYRYAMGWYRQAPGKERELVAAITWRGGSTYYADSVKGRFTISRDNAKNTVYLQMNSLKPEDTAVYYCAAAAYGVPWRSYLGVFKSHMDYWGQGTQVTVSS”, for which the “polyreactivity (PSR sort gate)” value is listed as “high polyreactivity”.

“QVQLVESGGGLVQAGGSLRLICAASGRILYTYAMGWYRQAPGKERELVAGISRGGRTYYADSVKGRFTISRDNAKNTVYLQMNSLKPEDTAVYYCAARLQYGIQYRYDYWGQGTLVTVSS”: the “polyreactivity (PSR sort gate)” value is given as “high polyreactivity”.

For the sequence “QVQLVESGGGLVQAGGSLRLICAASGRNFNHYAMGWYRQAPGKERELVAGITISCGSTYYADSVKGRFTISRDNSKNTVSLQINSLKPEVTAVYYCNAVYDYYRQSKWSMDYWGQGTQVTVSS”, the “polyreactivity (PSR sort gate)” value was “low polyreactivity”.

Regarding “QVQLVESGGGLVQAGGSLRLICAASGRSFDYYAMGWYRQAPGKERDLVAAITSGGTTTYYADSVKGRFTISRDNAKNTVYVQMNSLKPEDYAVYYCAKYPYHIYHTDGDYWGQGTQVTVSS”, the “polyreactivity (PSR sort gate)” value is recorded as “low polyreactivity”.

For “QVQLVESGGGLVQAGGSLRLICAASGRTFALYAMGWYRQAPGKEREVVASISWRGGSTYYADSVKGRFTISRDTAKNTVYLQMNSLKPEDTAVDYCAADTWSYGPLNYRLEYWGQGTQVTVSS”, the “polyreactivity (PSR sort gate)” value was “low polyreactivity”.

Consider “QVQLVESGGGLVQAGGSLRLICAASGRTFFRYGMGWYRQAPGKEREFVAAITRSGTTTYYADSVKGRFTISRDNAKNTVYLQMNSLKPEDTAVYYCDAQRAAPVDGKSDYWGQGTQVTLSS”, for which the “polyreactivity (PSR sort gate)” value was “low polyreactivity”.

For “QVQLVESGGGLVQAGGSLRLICAASGRTFGIYAMGWYSPAPGKERELVATISWRGGSTYYADSVKGRFTISRDNAKNSVYLQMNSLKPEDTGVYYCAAGYYPYWGQGTQVTVSS”, the “polyreactivity (PSR sort gate)” value is “low polyreactivity”.

Regarding “QVQLVESGGGLVQAGGSLRLICAASGRTFGVNAMGWYRQAPGKERELVASIRWNGGSTYYADSVKGRFTISRDNAKNTVYLQMNSLKPEDTAVYYCNAVRRYRSREFDYWGQGTQVTVSS”, the “polyreactivity (PSR sort gate)” value was “low polyreactivity”.

Take “QVQLVESGGGLVQAGGSLRLICAASGRTFINYAMGWSRQAPGKERELVAAITTGGRTNYADSVKGRFTISRDNAKNTVYLQMKSLKPEDTAVYYCAADRYYWGRYTLNYWGQGTQVTVSS”: the “polyreactivity (PSR sort gate)” value is “low polyreactivity”.

In the case of “QVQLVESGGGLVQAGGSLRLICAASGRTFKQYAMGWSRQAPGTERELVAAITSSGGSTYYADSVKGRFTISRDNAKNTVYLQMNSLKPEDTAVYYCAAATRGSGRRYDYWGQGTQVTVSS”, the “polyreactivity (PSR sort gate)” value is “high polyreactivity”.

Turning to “QVQLVESGGGLVQAGGSLRLICAASGRTFVYYAMGWYRQAPGKERELVAAISGGGSKTYADSVKGRFTISRDNAKYTVYLLMNSLKPEDTAVYYCGKSVWRRYYYWGQGNQVTVSS”, the “polyreactivity (PSR sort gate)” value is on record as “high polyreactivity”.

Take “QVQLVESGGGLVQAGGSLRLICAASGRTFYIYTMGWYREAPGKERELVAAISSSGDSTYYADSLKGRFTISRDNAKNTVYLQMNSLKPEDTAVYYCAAYPTYPDEYWGEGTQVTVSS”: the “polyreactivity (PSR sort gate)” value was “low polyreactivity”.

For “QVQLVESGGGLVQAGGSLRLICAASGRTFYKYAMGWYRQAPGKEREFVADISSRGGSTYYADSVKGRFTISRDNAKNTVYLQMNSLKPEDTSVYYCAAFSDLTFWHHFSELYYWGQGTQVTVSS”, the “polyreactivity (PSR sort gate)” value was “high polyreactivity”.

Turning to “QVQLVESGGGLVQAGGSLRLICAASGRTSGGNGMGWYRQAPGKERELVAAITWDGDSTYADSVKGRFTISRDNAKNTDYFQMNSLKPEDTAVYYCAAGVYQSDYYYWGQGTQVTVSS”, the “polyreactivity (PSR sort gate)” value is listed as “low polyreactivity”.

On to “QVQLVESGGGLVQAGGSLRLICAASGRTYHGYAMGWYRQAPGKERELVAAITSSGARTYYADSVKGRFTLSRDNAKKTVYLQMNSLKPEDTAVYYCAVNWLRGMDWGQGTQVTVSS”, for which the “polyreactivity (PSR sort gate)” value is on record as “high polyreactivity”.

Regarding “QVQLVESGGGLVQAGGSLRLICAASGSIFASYVMGWYRQAPGKERDLVAAITSRGTSTYYADSVKGRFTISRDNAKNTVYFQINSLKTEDTAVYYCAARLYGSAPQHEYWGKGTQVTVSS”, the “polyreactivity (PSR sort gate)” value was “low polyreactivity”.

As to “QVQLVESGGGLVQAGGSLRLICAASGSIFDRYAMGWYRPAPGKDRELVAAITGSGGSTYYADSVKGRFRISRDNAKNTVYLQMNSLKPEDTAVYYGNARARGAYVRYGYWGQGTQVTVSS”, the “polyreactivity (PSR sort gate)” value is reported as “high polyreactivity”.

As to “QVQLVESGGGLVQAGGSLRLICAASGSIFDRYVMGWYRQAPGKERELVAAITTSGDGTYYADSVKGRFTISRDNAKNTVYLQMNSLKPEDTAVYYCAAVRRSWKYSTSDYWGQGTQVTVSS”, the “polyreactivity (PSR sort gate)” value was “low polyreactivity”.

As for “QVQLVESGGGLVQAGGSLRLICAASGSIFDTYAMGWYRQAPGKERELLATISWSGDSTYYADSVKGRFTISRDNAKNTVYLQMNCLKPEDTAVYYCAADVGQVSDHEDYDYWGQGTQVTVSS”, the “polyreactivity (PSR sort gate)” value is “low polyreactivity”.

“QVQLVESGGGLVQAGGSLRLICAASGSIFFYYAMGWYRQAPGKERELVAAITKIGVGTFYADSVKGRFTISRDNAKNTVYLQMNSLKPEDTAVYYCNARTAWEGYDYWGQGTQVTVSS”: the “polyreactivity (PSR sort gate)” value is “low polyreactivity”.

For the sequence “QVQLVESGGGLVQAGGSLRLICAASGSIFPRYVMGWSRQAPGKERELVAAITRRGGSTYYADSVKGRFTISRDNAKHTVYLQMNSLKPADTAVYYCNAKYRLEMDWGQGTQVTVSS”, the “polyreactivity (PSR sort gate)” value is “high polyreactivity”.

Consider “QVQLVESGGGLVQAGGSLRLICAASGSIFRLNTMGWYRQAPGKERELVAAIFTSGGSTYADSVKGRFTISRDNAKNTVYLQMNSLKPEDTAVYYCAGMDYWGQGTQVTVSS”, for which the “polyreactivity (PSR sort gate)” value was “low polyreactivity”.

Take “QVQLVESGGGLVQAGGSLRLICAASGSIFRNNARGWYRQAAGKERELVAVISRRSGNTYYADSVKGRFTISRDNAKNTVYLQMNSLKPEDTAVYYCAADYSKSSIRGDYWGQGTQVTVSS”: the “polyreactivity (PSR sort gate)” value is reported as “low polyreactivity”.
